Results on one substance are retold here after patent US20210052718A1.

Test [1] deals with Live RSV (A2 strain) (respiratory syncytial virus A2 strain) (UniProt P03420). The test is described as follows: ELISA on coated virus; grade +++ = OD 1-1.5. On the technique in general: ELISA stands for enzyme-linked immunosorbent assay.
Test [2] has as its target Split RSV37° C. (standard preparation of inactivated split RSV vaccine) (respiratory syncytial virus) (UniProt P03420). Kind of test: ELISA on coated virus preparation; grade +++++ = OD 2-2.5.
The target of test [3] is Split RSV4° C. (inactivated at low temperature (4° C.) and split) (respiratory syncytial virus) (UniProt P03420). Kind of test: ELISA on coated virus preparation; grade ++++++ = OD >2.5.
The target of test [4] is FI-RSV (post F): formalin-inactivated whole RSV (respiratory syncytial virus) (UniProt P03420). Kind of test: ELISA on coated virus preparation; grade +++ = OD 1-1.5.
UniProt P03420, sequence (P03420 26-574): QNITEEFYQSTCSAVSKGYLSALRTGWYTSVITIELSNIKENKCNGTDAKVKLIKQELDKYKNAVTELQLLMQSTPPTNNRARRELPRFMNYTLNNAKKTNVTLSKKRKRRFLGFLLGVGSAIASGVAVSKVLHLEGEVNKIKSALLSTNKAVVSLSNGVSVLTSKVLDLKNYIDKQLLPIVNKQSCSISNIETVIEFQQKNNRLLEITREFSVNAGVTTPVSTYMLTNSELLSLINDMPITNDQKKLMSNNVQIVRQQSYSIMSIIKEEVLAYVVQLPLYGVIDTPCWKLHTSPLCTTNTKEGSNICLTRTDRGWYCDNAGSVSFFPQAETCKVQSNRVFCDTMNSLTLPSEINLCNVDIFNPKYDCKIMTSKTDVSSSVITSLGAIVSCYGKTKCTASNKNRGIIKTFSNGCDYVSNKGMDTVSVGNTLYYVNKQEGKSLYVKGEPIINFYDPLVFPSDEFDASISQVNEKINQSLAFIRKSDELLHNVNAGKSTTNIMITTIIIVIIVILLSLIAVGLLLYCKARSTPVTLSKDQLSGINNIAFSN

Live RSV (A2 strain) (respiratory syncytial virus A2 strain), sequence (P03420 26-574): as above
Split RSV37° C. (standard preparation of inactivated split RSV vaccine) (respiratory syncytial virus), sequence (P03420 26-574): as above
Split RSV4° C. (inactivated at low temperature (4° C.) and split) (respiratory syncytial virus), sequence (P03420 26-574): as above

As for palivizumab (antibody), the ELISA OD was 1 to 1.5 od in test [1], 2 to 2.5 od in test [2], > 2.5 od in test [3] and 1 to 1.5 od in test [4].
